Assay results taken from the supplement of paper PMC9112550, “Optimization of the antimicrobial peptide Bac7 by deep mutational scanning” (BMC Biology, 2022).

Each sequence was assayed on Escherichia coli TOP10 (assay: shrunken log2 fold change of peptide-encoding DNA abundance (4.5 h post-induction vs induction); higher = less antimicrobial activity (less host growth inhibition)). Conditions: time post-induction: 4.5 h; library: site-saturation at positions 5, 18, 19, 20.
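Further: peptides expressed intracellularly from a pBAD plasmid library in pooled LB shake-flask culture, induced with 0.3% L-arabinose, DNA abundance read by NGS, three biological replicates, DESeq2 with apeglm shrinkage.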

| Sequence | shrunken log2 fold change |
| --- | --- |
| RRIRYRPPRLPRPRPRPTTKPRP | -0.179 |
| RRIRQRPPRLPRPRPRPLRCPRP | 0.244 |
| RRIRQRPPRLPRPRPRPARVPRP | 0.109 |
| RRIRHRPPRLPRPRPRPMYMPRP | -0.369 |
| RRIRNRPPRLPRPRPRPILCPRP | -0.174 |
| RRIRTRPPRLPRPRPRPICQPRP | -0.0148 |
| RRIRRRPPRLPRPRPRPEHKPRP | 0.193 |
| RRIRMRPPRLPRPRPRPTKYPRP | -0.152 |
| RRIRGRPPRLPRPRPRPQTQPRP | 2.07 |
| RRIRWRPPRLPRPRPRPIFDPRP | 0.273 |
| RRIRHRPPRLPRPRPRPRREPRP | 0.217 |
| RRIRGRPPRLPRPRPRPDTLPRP | 0.169 |
| RRIRIRPPRLPRPRPRPYCPPRP | -0.175 |
| RRIRGRPPRLPRPRPRPAQHPRP | 0.378 |
| RRIRRRPPRLPRPRPRPPWSPRP | 0.421 |
| RRIRYRPPRLPRPRPRPYKIPRP | -0.573 |
| RRIRQRPPRLPRPRPRPKLEPRP | 0.563 |
| RRIRPRPPRLPRPRPRPHGKPRP | 0.0675 |
| RRIRCRPPRLPRPRPRPRCPPRP | 0.418 |
| RRIRSRPPRLPRPRPRPWITPRP | -0.305 |
| RRIRIRPPRLPRPRPRPLIMPRP | -0.853 |
| RRIRGRPPRLPRPRPRPRCSPRP | 0.415 |
| RRIRQRPPRLPRPRPRPYKMPRP | -0.292 |
| RRIRRRPPRLPRPRPRPAFKPRP | 0.291 |
| RRIRERPPRLPRPRPRPHRRPRP | 0.0407 |

| Sequence | shrunken log2 fold change |
| --- | --- |
| RRIRNRPPRLPRPRPRPEWHPRP | -0.285 |
| RRIRGRPPRLPRPRPRPKMVPRP | 0.79 |
| RRIRFRPPRLPRPRPRPGIYPRP | -0.184 |
| RRIRGRPPRLPRPRPRPCRAPRP | 0.495 |
| RRIRVRPPRLPRPRPRPERSPRP | 0.276 |
| RRIRRRPPRLPRPRPRPNSVPRP | -0.0617 |
| RRIRLRPPRLPRPRPRPNFEPRP | 0.0189 |
| RRIRKRPPRLPRPRPRPYHCPRP | -0.0129 |
| RRIRMRPPRLPRPRPRPTNDPRP | 0.231 |
| RRIRRRPPRLPRPRPRPQCSPRP | 0.109 |
| RRIRIRPPRLPRPRPRPVFQPRP | -0.19 |
| RRIRYRPPRLPRPRPRPFYYPRP | -1.18 |
| RRIRYRPPRLPRPRPRPAHDPRP | -1.14 |
| RRIRRRPPRLPRPRPRPYYQPRP | -0.617 |
| RRIRKRPPRLPRPRPRPPEEPRP | 1.79 |
| RRIRARPPRLPRPRPRPTFCPRP | 0.386 |
| RRIRIRPPRLPRPRPRPWMHPRP | 0.0105 |
| RRIRGRPPRLPRPRPRPVDEPRP | 1.05 |
| RRIRLRPPRLPRPRPRPFQHPRP | -0.175 |
| RRIRWRPPRLPRPRPRPFDPPRP | 0.0827 |
| RRIRTRPPRLPRPRPRPMQPPRP | 0.0715 |
| RRIRNRPPRLPRPRPRPESEPRP | 0.0333 |
| RRIRDRPPRLPRPRPRPPGAPRP | 0.564 |
| RRIRGRPPRLPRPRPRPMHKPRP | 0.866 |
| RRIRQRPPRLPRPRPRPNMCPRP | -0.195 |

| Sequence | shrunken log2 fold change |
| --- | --- |
| RRIRARPPRLPRPRPRPCRQPRP | -0.0784 |
| RRIRERPPRLPRPRPRPSIGPRP | -0.406 |
| RRIRHRPPRLPRPRPRPCCRPRP | -0.276 |
| RRIRLRPPRLPRPRPRPGSRPRP | -0.183 |
| RRIRFRPPRLPRPRPRPLHGPRP | -0.216 |
| RRIRMRPPRLPRPRPRPQEYPRP | -0.0485 |
| RRIRFRPPRLPRPRPRPWGRPRP | 0.0219 |
| RRIRRRPPRLPRPRPRPPAEPRP | 0.851 |
| RRIRVRPPRLPRPRPRPDVPPRP | -0.0976 |
| RRIRARPPRLPRPRPRPEDTPRP | 0.625 |
| RRIRLRPPRLPRPRPRPWHVPRP | -0.121 |
| RRIRMRPPRLPRPRPRPNPPPRP | 0.311 |
| RRIRERPPRLPRPRPRPHVIPRP | -0.133 |
| RRIRRRPPRLPRPRPRPMFHPRP | -0.395 |
| RRIRPRPPRLPRPRPRPCDKPRP | 0.0695 |
| RRIRVRPPRLPRPRPRPFQWPRP | -0.126 |
| RRIRSRPPRLPRPRPRPGSPPRP | 0.106 |
| RRIRCRPPRLPRPRPRPRMQPRP | 0.349 |
| RRIRQRPPRLPRPRPRPHNRPRP | -0.372 |
| RRIRTRPPRLPRPRPRPGTVPRP | 0.0209 |
| RRIRWRPPRLPRPRPRPMHPPRP | 0.224 |
| RRIRGRPPRLPRPRPRPDDQPRP | 1.92 |
| RRIRNRPPRLPRPRPRPHQEPRP | -0.00146 |
| RRIRRRPPRLPRPRPRPDCTPRP | 0.252 |
| RRIRQRPPRLPRPRPRPPCCPRP | 0.0763 |

| Sequence | shrunken log2 fold change |
| --- | --- |
| RRIRARPPRLPRPRPRPPMWPRP | 0.805 |
| RRIRTRPPRLPRPRPRPIQGPRP | -0.0537 |
| RRIRVRPPRLPRPRPRPESEPRP | 0.0921 |
| RRIRRRPPRLPRPRPRPYKQPRP | -0.286 |
| RRIRWRPPRLPRPRPRPQMPPRP | 0.135 |
| RRIRARPPRLPRPRPRPPPYPRP | 0.698 |
| RRIRLRPPRLPRPRPRPIIIPRP | -0.302 |
| RRIRVRPPRLPRPRPRPGPCPRP | -0.128 |
| RRIRPRPPRLPRPRPRPIVIPRP | -0.328 |
| RRIRWRPPRLPRPRPRPQWLPRP | 0.275 |
| RRIRSRPPRLPRPRPRPCLRPRP | -0.385 |
| RRIRNRPPRLPRPRPRPSDQPRP | 0.0574 |
| RRIRSRPPRLPRPRPRPKTEPRP | -0.0689 |
| RRIRCRPPRLPRPRPRPKRGPRP | 0.27 |
| RRIRWRPPRLPRPRPRPDITPRP | 0.179 |
| RRIRTRPPRLPRPRPRPSPWPRP | -0.114 |
| RRIRCRPPRLPRPRPRPIHKPRP | -0.638 |
| RRIRNRPPRLPRPRPRPTNIPRP | -0.312 |
| RRIRGRPPRLPRPRPRPAPAPRP | 1.14 |
| RRIRARPPRLPRPRPRPQDVPRP | -0.136 |
| RRIRYRPPRLPRPRPRPPPHPRP | 0.737 |
| RRIRDRPPRLPRPRPRPCFRPRP | -0.157 |
| RRIRARPPRLPRPRPRPAMAPRP | 0.479 |
| RRIRARPPRLPRPRPRPVIEPRP | 0.362 |
| RRIRSRPPRLPRPRPRPTAWPRP | 0.47 |

| Sequence | shrunken log2 fold change |
| --- | --- |
| RRIRGRPPRLPRPRPRPHLNPRP | 0.0325 |
| RRIRMRPPRLPRPRPRPSMEPRP | 0.484 |
| RRIRDRPPRLPRPRPRPRYTPRP | -0.219 |
| RRIRQRPPRLPRPRPRPENPPRP | 0.0317 |
| RRIRLRPPRLPRPRPRPDCRPRP | 0.0593 |
| RRIRLRPPRLPRPRPRPWNYPRP | -0.43 |
| RRIRVRPPRLPRPRPRPGFQPRP | 0.302 |
| RRIRKRPPRLPRPRPRPQPCPRP | 0.192 |
| RRIRIRPPRLPRPRPRPDSWPRP | -0.268 |
| RRIRRRPPRLPRPRPRPHCYPRP | 0.0243 |
| RRIRYRPPRLPRPRPRPVQGPRP | -0.0822 |
| RRIRLRPPRLPRPRPRPIAPPRP | 0.372 |
| RRIRWRPPRLPRPRPRPECQPRP | -0.0508 |
| RRIRRRPPRLPRPRPRPKEQPRP | 0.118 |
| RRIRHRPPRLPRPRPRPDLDPRP | -0.0331 |
| RRIRKRPPRLPRPRPRPNARPRP | 0.076 |
| RRIRYRPPRLPRPRPRPWTFPRP | -0.225 |
| RRIRRRPPRLPRPRPRPRYQPRP | 0.0511 |
| RRIRQRPPRLPRPRPRPQSCPRP | 0.00408 |
| RRIRERPPRLPRPRPRPNIDPRP | -0.0761 |
| RRIRCRPPRLPRPRPRPYFTPRP | -0.774 |
| RRIRCRPPRLPRPRPRPMRAPRP | 0.919 |
| RRIRIRPPRLPRPRPRPGLQPRP | 0.0696 |
| RRIRGRPPRLPRPRPRPIPHPRP | 0.196 |
| RRIRHRPPRLPRPRPRPFRMPRP | -0.625 |
